According to the MegaScale stability set (Tsuboyama et al. 2023):

B1: r16_88_TrROS_Hall (parent)
chain: EVIELKIKFKTPEQREKLKEIAKKLNAEVVEEKDGEVIIRFKTPEQAERALKEAEKLGAEVEL

Variants of: B1
Experiment: folding stability dG (cDNA display proteolysis); higher = more stable
Settings: PBS, room temperature

Variant	folding stability dG [kcal/mol]
A59L	4.62
A59M	4.39
A59N	4.3
A59P	4.55
A59Q	4.05
A59R	3.99
A59S	4.26
A59T	4.27
A59V	4.65
A59W	4.21
A59Y	4.5
E60A	4.12
E60C	4.27
E60D	4.24
E60F	4.07
E60G	3.81
E60H	4.19
E60I	4.12
E60K	4.38
E60L	4.21
E60M	4.11
E60N	4.29

Variant	folding stability dG [kcal/mol]
E60P	3.44
E60Q	4.2
E60R	4.15
E60S	4.28
E60T	4.4
E60V	4.54
E60W	4.01
E60Y	4.21
V61A	4.51
V61C	4.16
V61D	4.72
V61E	4.3
V61F	4.05
V61G	4.4
V61H	4.39
V61I	4.29
V61K	3.84
V61L	4.28
V61M	3.99
V61N	4.28
V61P	4.14
V61Q	4.22

Variant	folding stability dG [kcal/mol]
V61R	3.46
V61S	3.93
V61T	4.2
V61W	3.96
V61Y	3.79
E62A	4.5
E62C	4.59
E62D	4.59
E62F	4.25
E62G	4.46
E62H	4.37
E62I	4.35
E62K	4.17
E62L	4.21
E62M	4.24
E62N	4.53
E62P	3.84
E62Q	4.3
E62R	3.94
E62S	4.5
E62T	4.4
E62V	4.35

Variant	folding stability dG [kcal/mol]
E62W	3.87
E62Y	4.12
L63A	4.17
L63C	4.44
L63D	4.33
L63E	4.22
L63F	4.07
L63G	4.38
L63H	4.59
L63I	4.22
L63K	4.56
L63M	4.23
L63N	4.3
L63P	4.69
L63R	4.28
L63S	4.39
L63T	4.24
L63V	4.25
L63W	4.73
L63Y	4.35
